The labels stand for the following.
B2: human LAIR-1-Fc (Fc fusion)
chain: QEEDLPRPSISAEPGTVIPLGSHVTFVCRGPVGVQTFRLERESRSTYNDTEDVSQASPSESEARFRIDSVSEGNAGPYRCIYYKPPKWSEQSDYLELLVKETSGGPDSPDTEPGSSAGPTQRPSDNSHNEHAPASQGLKAEHLY
notes: also called biotinylated human LAIR-1-Fc; not shown: a Fc region

Like-named read-outs stand apart in the source and are kept apart here.

Assay [1] deals with T1, human LAIR-1-CD3ζ chimeric receptor on NFAT-GFP reporter cells (human, UniProt P20963 31-164, limits assumed). Put plainly: cell-based or functional assay.
The target of assay [2] is T2, cyno LAIR-1-CD3ζ chimeric receptor on NFAT-GFP reporter cells (cynomolgus monkey; human). Put plainly: cell-based or functional assay.
Assay [3] concerns the target T1, human LAIR-1-CD3ζ chimeric receptor on …. Put plainly: cell-based or functional assay. The source holds these as a separate data set.
For assay [4], the target named is T2, cyno LAIR-1-CD3ζ chimeric receptor on …. The assay can be described thus: cell-based or functional assay. This is another data set of the same source.
The target in assay [5] is T3, cyno LAIR-1-ECD (cynomolgus monkey).
T3 construct: Recombinant, expressed in mammalian cells; also called extracellular region of cyno LAIR-1
T3 chain: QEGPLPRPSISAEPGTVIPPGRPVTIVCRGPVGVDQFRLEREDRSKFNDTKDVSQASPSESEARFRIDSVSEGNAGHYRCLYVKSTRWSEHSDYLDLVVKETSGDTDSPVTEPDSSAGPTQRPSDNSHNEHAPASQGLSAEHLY
Put plainly: SPR (Biacore) as in Example 2. For orientation: In SPR one partner is held on a chip, and binding of the other changes the refractive index at the surface.

The target of assay [6] is T4, human LAIR-1-ECD (human, UniProt Q6GTX8 22-165).
T4 construct: Recombinant, expressed in mammalian cells; also called extracellular region of human LAIR-1
T4 chain: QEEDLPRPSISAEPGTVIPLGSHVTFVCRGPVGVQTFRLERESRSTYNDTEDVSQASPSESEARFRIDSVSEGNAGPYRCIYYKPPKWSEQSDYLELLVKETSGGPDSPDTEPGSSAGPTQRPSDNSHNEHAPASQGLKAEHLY
The assay can be described thus: SPR (Biacore) as in Example 2.

For assay [7], the target named is T1, human LAIR-1-CD3ζ chimeric receptor on …. The assay can be described thus: cell-based or functional assay. This is another data set of the same source.
Assay [8] has as its target T2, cyno LAIR-1-CD3ζ chimeric receptor on …. Put plainly: cell-based or functional assay. This is another data set of the same source.
Assay [9] deals with B2. The assay can be described thus: ELISA blocking: plate coated with 5 µg/mL human collagen type 1, antibody titrated, 1 µg/mL biotinylated human LAIR-1-Fc, streptavidin-HRP, OD650. (In general: An ELISA detects its analyte on a solid surface through an enzyme-linked reagent.)
Assay [10] addresses T1, human LAIR-1-CD3ζ chimeric receptor on …. Put plainly: cell-based or functional assay. The source holds these as a separate data set.
Assay [11] has as its target T5, human MARCO expressed on cells (721.221-MARCO, 293T-MARCO) (human, UniProt Q9UEW3 1-520).
T5 construct: also called 721.221 cells expressing MARCO
T5 sequence: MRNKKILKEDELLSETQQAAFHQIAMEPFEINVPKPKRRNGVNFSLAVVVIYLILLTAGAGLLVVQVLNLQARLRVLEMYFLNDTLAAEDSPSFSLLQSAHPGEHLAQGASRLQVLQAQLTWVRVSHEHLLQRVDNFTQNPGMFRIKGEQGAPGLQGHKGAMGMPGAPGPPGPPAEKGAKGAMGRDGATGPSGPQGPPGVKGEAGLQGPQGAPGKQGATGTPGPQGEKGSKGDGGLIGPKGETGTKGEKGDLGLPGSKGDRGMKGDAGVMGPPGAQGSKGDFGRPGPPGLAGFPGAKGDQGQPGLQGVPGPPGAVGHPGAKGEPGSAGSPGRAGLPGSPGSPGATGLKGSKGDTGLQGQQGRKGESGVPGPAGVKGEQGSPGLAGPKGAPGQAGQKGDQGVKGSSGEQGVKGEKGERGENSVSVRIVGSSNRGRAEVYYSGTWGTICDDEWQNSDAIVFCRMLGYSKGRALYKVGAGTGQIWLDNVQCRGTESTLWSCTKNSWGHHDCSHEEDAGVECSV
The assay can be described thus: flow cytometry, Fc protein at 10 µg/mL on 721.221 cells expressing MARCO, PE anti-Fc secondary. A general note: Flow cytometry measures light scatter and fluorescence of single cells or particles in a stream.

In assay [12] the target is T6, human LAIR-1b (alternative isoform of human LAIR-1) on transfected 293T cells (human, UniProt Q6GTX8 22-287).
T6 chain: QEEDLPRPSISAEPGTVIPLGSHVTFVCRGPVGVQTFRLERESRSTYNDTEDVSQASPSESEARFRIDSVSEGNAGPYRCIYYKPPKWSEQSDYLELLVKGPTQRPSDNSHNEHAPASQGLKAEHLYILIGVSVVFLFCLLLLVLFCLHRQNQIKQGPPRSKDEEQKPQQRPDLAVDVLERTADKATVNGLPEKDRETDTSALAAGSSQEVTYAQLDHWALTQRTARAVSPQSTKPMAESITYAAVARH
Put plainly: flow cytometry on cells expressing human LAIR-1b, PE anti-human Fc secondary, MFI (panel Human LAIR1 (Truncated) Cells).

Assay [13] concerns the target T7, mouse LAIR-1 (form in the assay not stated) (mouse, UniProt Q8BG84 22-144, limits assumed).
T7 sequence: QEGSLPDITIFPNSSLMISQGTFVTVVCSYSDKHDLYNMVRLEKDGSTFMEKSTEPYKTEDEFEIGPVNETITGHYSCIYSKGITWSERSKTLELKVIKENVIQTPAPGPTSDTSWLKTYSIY
Put plainly: not described.

In assay [14] the target is T1, human LAIR-1-CD3ζ chimeric receptor on …. Put plainly: cell-based or functional assay. The source holds these as a separate data set.
In assay [15] the target is T2, cyno LAIR-1-CD3ζ chimeric receptor on …. The assay can be described thus: flow cytometry on cyno LAIR-1 reporter cells, PE anti-human Fc secondary, MFI (panel Cynomolgus Monkey LAIR1 Cells).
The target in assay [16] is T1, human LAIR-1-CD3ζ chimeric receptor on …. Put plainly: flow cytometry on human LAIR-1 reporter cells, PE anti-human Fc secondary, MFI (panel Human LAIR1 Cells).

The term Kd denotes the free concentration of one partner at which half of the binding sites on the other are occupied at equilibrium, for simple one-to-one binding. As a reminder, the koff is the first-order rate constant of dissociation. What is called kon is the rate constant with which the complex forms. For orientation: EC50 (read off the curve) means the concentration giving half of the maximal effect.

B1: anti-LAIR-1 antibody ch62G10 (antibody, V domains shown)
VH: EVQLVETGGGLVQPKGSLKLSCATSGFTFNINAMNWVRQAPGKGLEWVARIRTKNNNFATYYADSVKDRFTISRDDSQSMLYLQMNNLKTEDTAMYYCVRGPYFDYWGQGTTLTVSS
VL: DIQMTQSPASQSASLGESVTITCLASQTIGTWLAWYQQKPGKSPQLLIYAATSLADGVPSRFSGSGSGTKFSFKISNLQAEDFVTYYCQQLYSTPYTFGGGTKLEIK
notes: The prefix 'ch' is not defined
On to B1, for which the “IC50 (read off the curve): % GFP+ human LAIR-1 reporter cells on polymerized collagen matrix” value in [1] is about 0.03 nM. The “IC50 (read off the curve): % GFP+ cyno LAIR-1 reporter cells on polymerized collagen matrix” value in assay [2] was about 0.2 nM. The “IC50 (read off the curve): % GFP+ human LAIR-1 reporter cells co-cultured with bEnd.3 cells” value in [3] is about 0.04 nM. Besides, in assay [4], the “IC50 (read off the curve): % GFP+ cyno LAIR-1 reporter cells co-cultured with bEnd.3 cells” value was about 0.2 nM. In assay [5], this molecule displayed a Kd of 16 nM, a koff of 0.0043 s⁻¹ and a kon of 280000 M⁻¹ s⁻¹. In assay [6], this molecule gave a dissociation constant Kd of 0.9 nM, a koff of 0.00069 s⁻¹ and a kon of 770000 M⁻¹ s⁻¹. In [7], the “IC50 (read off the curve): % GFP+ human LAIR-1 reporter cells on coated MARCO-his” value is about 0.06 nM, the “IC50 (read off the curve): % GFP+ human LAIR-1 reporter cells on coated collagen 1” value is about 0.04 nM and the “IC50 (read off the curve): % GFP+ human LAIR-1 reporter cells on coated collagen 4” value is about 0.03 nM. Also, in assay [8], the “IC50 (read off the curve): % GFP+ cyno LAIR-1 reporter cells on coated MARCO-his” value was about 0.2 nM, the “IC50 (read off the curve): % GFP+ cyno LAIR-1 reporter cells on coated collagen 1” value is about 0.4 nM and the “IC50 (read off the curve): % GFP+ cyno LAIR-1 reporter cells on coated collagen 4” value is about 0.2 nM. The “IC50 (read off the curve)” value in assay [9] is about 3 nM. Also, in [10], the “IC50 (read off the curve): % GFP+ human LAIR-1 reporter cells on coated MARCO-his” value was about 0.07 nM, the “IC50 (read off the curve): % GFP+ human LAIR-1 reporter cells on coated collagen 1” value is about 0.1 nM and the “IC50 (read off the curve): % GFP+ human LAIR-1 reporter cells on coated collagen 4” value is about 0.1 nM.
With B2, the binding result in [11] is given as “binds”.

B3: LAIR-2-Fc (Fc fusion)
chain: QEGALPRPSISAEPGTVISPGSHVTFMCRGPVGVQTFRLEREDRAKYKDSYNVFRLGPSESEARFHIDSVSEGNAGLYRCLYYKPPGWSEHSDFLELLVKESSGGPDSPDTEPGSSAGTVPGTEASGFDAP
notes: LAIR-2 soluble protein fused to a Fc region; also called human LAIR-2-Fc; not shown: a Fc region
In the case of B3, the binding result in [11] was “binds”.

B4: humanized anti-LAIR-1 antibody Hz47H1.v4 (antibody, human IgG1, kappa, N297G, V domains shown)
VH: EVQLVESGGGLVQPGGSLRLSCAASGFTFNINAMNWVRQAPGKGLEWVARIRTKNYNYATFYADSVKDRFTISRDDSKNSLYLQMNSLKTEDTAVYYCVRDRAGFFAYWGQGTTVTVSS
VL: DIQMTQSPSSLSASVGDRVTITCLASQTIGTWLGWYQQKPGKAPKLLIYAATSLAEGVPSRFSGSGSGTDFTLTISSLQPEDFATYYCQQLYSTPLTFGGGTKVEIKR
notes: Humanized 47H1 with reengineered VH CDR2 and VL CDR2
Consider B4, for which, in assay [12], the concentration for a half-maximal effect (EC50 (read off the curve)) was about 2 nM. Also, the “IC50 (read off the curve): % GFP+ cyno LAIR-1 reporter cells on polymerized collagen matrix” value in assay [2] was about 0.09 nM. Further, the “IC50 (read off the curve): % GFP+ cyno LAIR-1 reporter cells co-cultured with bEnd.3 cells” value in assay [4] was about 0.1 nM. For the same molecule, the binding result in assay [13] was “no binding”. In [14], the “IC50 (M), reporter cell assay, ligand COLEC12” value came out at 1.2e-11 M; the “IC50 (M), reporter cell assay, ligand Collagen 1” value came to 3.2e-11 M; the “IC50 (M), reporter cell assay, ligand Collagen 4” value was 3.2e-11 M; the “IC50 (M), reporter cell assay, ligand MARCO” value came to 3.2e-11 M. In assay [14], the “IC50 (M), reporter cell assay, ligand MBL” value was determined as 4.2e-11 M; the “IC50 (M), reporter cell assay, ligand Polymerized Collagen Matrix” value came out at 3e-11 M; the “IC50 (M), reporter cell assay, ligand SPD” value is 2e-11 M; the “IC50 (M), reporter cell assay, ligand Tumor Cell Collagens” value came out at 1.6e-11 M. Moreover, in assay [5], the affinity, expressed as Kd, was 4.3 nM; the koff is 0.0016 s⁻¹; the kon came out at 390000 M⁻¹ s⁻¹. In [6], this molecule registered a Kd of 0.26 nM, a koff of 0.0006 s⁻¹ and a kon of 2.3e+06 M⁻¹ s⁻¹. In assay [7], the “IC50 (read off the curve): % GFP+ human LAIR-1 reporter cells on coated MARCO-his” value was about 0.02 nM, the “IC50 (read off the curve): % GFP+ human LAIR-1 reporter cells on coated collagen 1” value is about 0.02 nM and the “IC50 (read off the curve): % GFP+ human LAIR-1 reporter cells on coated collagen 4” value is about 0.02 nM. In [8], the “IC50 (read off the curve): % GFP+ cyno LAIR-1 reporter cells on coated MARCO-his” value was about 0.06 nM, the “IC50 (read off the curve): % GFP+ cyno LAIR-1 reporter cells on coated collagen 1” value was about 0.1 nM and the “IC50 (read off the curve): % GFP+ cyno LAIR-1 reporter cells on coated collagen 4” value is about 0.08 nM. Also, the “IC50 (read off the curve)” value in assay [9] was about 3 nM. Besides, the “EC50 (read off the curve)” value in assay [15] is about 1 nM. Also, the “EC50 (read off the curve)” value in assay [16] was about 0.2 nM.

Source of the values: patent US20220041711A1 (NGM BIOPHARMACEUTICALS, published 2022).
